Experimental data from patent CN111732654A (WUHAN INST OF BIOLOGICAL PRODUCTS CO LTD, dated 2020).

Assays:
[1] = biological target: SARS-CoV-2刺突S1-His重组蛋白 (Sino公司，货号:40591-V08H) (SARS-CoV-2 (2019-nCoV), UniProt P0DTC2 16-685)
[2] = biological target: SARS-CoV-2刺突蛋白S1的RBD结构域重组蛋白 (Sino公司，货号40592-V05H) (SARS-CoV-2 (2019-nCoV), UniProt P0DTC2 319-541)

B1: 单克隆抗体1E10 (人源抗SARS-CoV-2抗体1E10) (antibody, V domains shown)
VH: EVQLVQSGAEVKKPGSSVKVSCKASGGTFSSYAISWVRQAPGQGLEWMGRIIPILGIANYAQKFQGRVTITADKSTSTAYMELSSLRSEDTAVYYCAREVSDFDWLYRSHYGMDVWGQGTTVTVSS
VL: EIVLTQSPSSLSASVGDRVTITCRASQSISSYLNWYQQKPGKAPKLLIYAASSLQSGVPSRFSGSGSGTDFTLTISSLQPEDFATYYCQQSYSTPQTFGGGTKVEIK
[1]
  EC50: 0.029 nM
[2]
  EC50: 0.044 nM
